Article doi:10.1101/2023.03.06.531442 (bioRxiv, 2023)

How the values were obtained:
[1] = target: the molecule itself; test: cryo-EM structure
[2] = target: the molecule itself; test: TIRF microscopy of assembled microtubules

B1: mouse α-tubulin isotype α1C (natural protein)
chain: MRECISIHVGQAGVQIGNACWELYCLEHGIQPDGQMPSDKTIGGGDDSFNTFFSETGAGKHVPRAVFVDLEPTVIDEVRTGTYRQLFHPEQLITGKEDAANNYARGHYTIGKEIIDLVLDRIRKLADQCTGLQGFLVFHSFGGGTGSGFTSLLMERLSVDYGKKSKLEFSIYPAPQVSTAVVEPYNSILTTHTTLEHSDCAFMVDNEAIYDICRRNLDIERPTYTNLNRLISQIVSSITASLRFDGALNVDLTEFQTNLVPYPRIHFPLATYAPVISAEKAYHEQLTVAEITNACFEPANQMVKCDPRHGKYMACCLLYRGDVVPKDVNAAIATIKTKRTIQFVDWCPTGFKVGINYQPPTVVPGGDLAKVQRAVCMLSNTTAIAEAWARLDHKFDLMYAKRAFVHWYVGEGMEEGEFSEAREDMAALEKDYEEVGADSAEGDDEGEEY
binding result [1]: binds

B2: mouse α-tubulin isotype α4A (natural protein)
chain: MRECISVHVGQAGVQMGNACWELYCLEHGIQPDGQMPSDKTIGGGDDSFTTFFCETGAGKHVPRAVFVDLEPTVIDEIRNGPYRQLFHPEQLITGKEDAANNYARGHYTIGKEIIDPVLDRIRKLSDQCTGLQGFLVFHSFGGGTGSGFTSLLMERLSVDYGKKSKLEFSIYPAPQVSTAVVEPYNSILTTHTTLEHSDCAFMVDNEAIYDICRRNLDIERPTYTNLNRLISQIVSSITASLRFDGALNVDLTEFQTNLVPYPRIHFPLATYAPVISAEKAYHEQLSVAEITNACFEPANQMVKCDPRHGKYMACCLLYRGDVVPKDVNAAIAAIKTKRSIQFVDWCPTGFKVGINYQPPTVVPGGDLAKVQRAVCMLSNTTAIAEAWARLDHKFDLMYAKRAFVHWYVGEGMEEGEFSEAREDMAALEKDYEEVGIDSYEDEDEGEE
binding result [1]: binds

B3: recombinant mouse α4A/β2A tubulin heterodimer (complex)
chain 1: B2 chain
chain 2: […]
binding result [2]: binds
